Experimental data: article PMC10783504, “Structural analysis of PLD3 reveals insights into the mechanism of lysosomal 5′ exonuclease-mediated nucleic acid degradation” (Nucleic Acids Research, 2023)

How the values were obtained:
hPLD3 luminal domain [1] = molecular target: T1, hPLD3 luminal domain (Homo sapiens, UniProt Q8IV08 61-490); assay: ITC; N = 1.0; dH -12 kcal/mol; no phosphorothioate, cleavable substrate; ITC: 20 mM HEPES pH 7.5, 150 mM NaCl, 10 C; 380 uM ssDNA in syringe, 10 uM hPLD3 in cell. Crystals: 15% PEG 4000, 0.02 M NaI, 0.9 M ammonium sulfate, 15% glycerol; details: protein: recombinant; tags: C-terminal 6xHis; chain copies: 2; single strand
T1 sequence: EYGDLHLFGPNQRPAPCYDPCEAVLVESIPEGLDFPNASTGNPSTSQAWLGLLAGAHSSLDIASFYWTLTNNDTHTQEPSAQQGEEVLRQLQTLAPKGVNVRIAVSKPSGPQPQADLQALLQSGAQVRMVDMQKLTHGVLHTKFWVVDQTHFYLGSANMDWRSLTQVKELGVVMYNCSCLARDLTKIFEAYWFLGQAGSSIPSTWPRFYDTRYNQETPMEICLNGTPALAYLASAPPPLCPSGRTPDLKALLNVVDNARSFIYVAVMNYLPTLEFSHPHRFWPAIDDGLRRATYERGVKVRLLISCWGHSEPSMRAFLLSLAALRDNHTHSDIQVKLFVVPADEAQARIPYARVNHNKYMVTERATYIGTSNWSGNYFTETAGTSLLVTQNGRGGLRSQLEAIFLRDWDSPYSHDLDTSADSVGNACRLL

[2] = molecular target: the molecule itself; assay: SEC; HiLoad 16/600 Superdex 200 pg column, HEPES buffer pH 7.5, calibrated with LMW and HMW protein standards
[3] = molecular target: the molecule itself; assay: AUC; sedimentation velocity, 40000 rpm, 20°C, 8 or 16 μM hPLD3, absorbance at 280 or 290 nm
hPLD3 luminal domain [4] = molecular target: T1, hPLD3 luminal domain; assay: ITC; ITC: 20 mM HEPES pH 7.5, 150 mM NaCl, 10 C; 380 uM ssDNA in syringe, 10 uM hPLD3 in cell. Crystals: 15% PEG 4000, 0.02 M NaI, 0.9 M ammonium sulfate, 15% glycerol; details: protein: recombinant; tags: C-terminal 6xHis; chain copies: 2; single strand
hPLD3 luminal domain [5] = molecular target: T1, hPLD3 luminal domain; assay: ITC; N = 0.9; dH 30 kcal/mol; ITC: 20 mM HEPES pH 7.5, 150 mM NaCl, 10 C; 380 uM ssDNA in syringe, 10 uM hPLD3 in cell. Crystals: 15% PEG 4000, 0.02 M NaI, 0.9 M ammonium sulfate, 15% glycerol; details: protein: recombinant; tags: C-terminal 6xHis; chain copies: 2; single strand

B1: TTCATG (ssDNA)
DNA: TTCATG
Kd (hPLD3 luminal domain [1]): 20 ± 2 µM

B2: luminal domain (residues 61–490) of human PLD3 (domain or fragment, UniProt Q8IV08 61-490, looked up)
chain: T1 sequence
modifications: N-glycosylated (Man5GlcNAc2, high-mannose type) at Asn97, Asn132, Asn236, Asn284 and Asn387, at least partially; Cys300 oxidized to cysteine sulfonic acid (OCS)
notes: human PLD3 (phospholipase D3), luminal domain, residues 61-490, starting directly after the transmembrane segment; In the crystals residues 72–98 and 101–490 are seen, 61–71 and 99–100 are not visible; also called hPLD3; hPLD3_(61-490); source: HEK293S GnTI- stably transfected monoclonal cell line, secreted into culture supernatant, purified (NiNTA, SEC)
stoichiometry N [2]: 2 | stoichiometry N [3]: 4

B3: T*T*C*A*T*G* (ssDNA)
DNA: TTCATG
modifications: phosphorothioate at all linkages (mixed Rp/Sp); printed with * also after the last G
binding result (hPLD3 luminal domain [4]): no binding

B4: T*TCATG (ssDNA)
DNA: TTCATG
modifications: phosphorothioate between nt 1 and 2 (mixed Rp/Sp)
Kd (hPLD3 luminal domain [5]): 28 ± 4 µM
